Results taken from publication PMC3349753.

Biological target: Myc-tagged full-length FGD4 (FYVE, RhoGEF and PH domain-containing 4) (human) (UniProt Q96M96)
Chain of UniProt Q96M96 (Q96M96 whole entry, the tested form may be a part): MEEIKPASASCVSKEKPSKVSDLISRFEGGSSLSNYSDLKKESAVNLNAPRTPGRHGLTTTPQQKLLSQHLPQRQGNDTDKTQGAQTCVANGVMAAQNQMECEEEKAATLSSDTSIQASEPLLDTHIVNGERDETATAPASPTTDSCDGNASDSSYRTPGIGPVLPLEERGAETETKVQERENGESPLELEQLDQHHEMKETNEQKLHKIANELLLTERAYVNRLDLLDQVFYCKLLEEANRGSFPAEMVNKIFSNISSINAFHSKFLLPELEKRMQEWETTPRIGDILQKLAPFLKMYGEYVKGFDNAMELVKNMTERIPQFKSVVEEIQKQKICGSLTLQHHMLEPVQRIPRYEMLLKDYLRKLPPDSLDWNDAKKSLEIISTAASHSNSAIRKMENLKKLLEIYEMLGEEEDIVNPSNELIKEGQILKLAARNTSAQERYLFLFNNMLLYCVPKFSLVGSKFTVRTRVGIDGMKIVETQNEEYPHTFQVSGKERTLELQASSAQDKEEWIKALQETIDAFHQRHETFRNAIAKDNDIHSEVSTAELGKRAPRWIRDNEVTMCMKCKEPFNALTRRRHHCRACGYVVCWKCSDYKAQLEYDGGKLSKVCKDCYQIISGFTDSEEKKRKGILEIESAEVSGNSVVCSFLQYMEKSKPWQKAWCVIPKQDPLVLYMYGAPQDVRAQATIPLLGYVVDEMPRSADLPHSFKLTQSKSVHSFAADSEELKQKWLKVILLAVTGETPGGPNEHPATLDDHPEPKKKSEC

Substance | level of active Cdc42 (GST-CBD pull-down from NPC-TW01 lysates) on co-expression of FGD4 with CD40CT, compared with expression of FGD4 alone: did not promote Cdc42 activation | level of active Cdc42 (GST-CBD pull-down from NPC-TW01 lysates) on co-expression of Myc-FGD4 with LMP1, compared with expression of FGD4 alone
Flag-CD40CT chimera: the entire transmembrane region of LMP1 (aa 1–177) replaced with that of CD40 (aa 1–214) (from UniProt P25942 21-214; P03230 178-386) | 1.1 fold | 
Flag-tagged full-length latent membrane protein 1 (LMP1) (from UniProt P03230 1-386) (natural protein) |  | 1.8 fold
